How the values were obtained:
[1] = molecular target: human NKG2A (NKG2-A/NKG2-B type II integral membrane protein) (human) (UniProt P26715); assay: cell-based or functional assay
[2] = molecular target: human CD94 (Natural killer cells antigen CD94) (human) (UniProt Q13241); assay: flow cytometry, normal liver, CD45+CD3+CD4+ T cells
[3] = molecular target: human CD94 (Natural killer cells antigen CD94) (human) (UniProt Q13241); assay: flow cytometry, normal liver, CD45+CD3+CD8+ T cells
[4] = molecular target: human CD94 (Natural killer cells antigen CD94) (human) (UniProt Q13241); assay: flow cytometry with APC MESF bead calibration, average over healthy donor PBMC, CD3-CD56+ NK cells
[5] = molecular target: human CD94 (Natural killer cells antigen CD94) (human) (UniProt Q13241); assay: flow cytometry with APC MESF bead calibration, CD94bright T-LGLL patient PBMC, CD3+CD16- T lymphocytes [Cont.]
[6] = molecular target: human CD94 (Natural killer cells antigen CD94) (human) (UniProt Q13241); assay: flow cytometry with APC MESF bead calibration, average over healthy donor PBMC, CD3-CD57+ NK cells
[7] = molecular target: human CD94 (Natural killer cells antigen CD94) (human) (UniProt Q13241); assay: flow cytometry, healthy donor PBL, CD3+CD8+ T cells
[8] = molecular target: human CD94 (Natural killer cells antigen CD94) (human) (UniProt Q13241); assay: flow cytometry, CD94dim T-LGLL patient PBMC, CD3+CD16- T lymphocytes [Cont.]
[9] = molecular target: human CD94 (Natural killer cells antigen CD94) (human) (UniProt Q13241); assay: flow cytometry, CD94bright T-LGLL patient PBMC, CD3+CD16- T lymphocytes [Cont.]
[10] = molecular target: human CD94 (Natural killer cells antigen CD94) (human) (UniProt Q13241); assay: flow cytometry with APC MESF bead calibration, CD94bright T-LGLL patient PBMC, CD3-CD16+ NK cells [Cont.]
[11] = molecular target: human CD94 (Natural killer cells antigen CD94) (human) (UniProt Q13241); assay: flow cytometry with APC MESF bead calibration, CLPD-NK patient PBMC, CD3+CD16+ T-LGL
[12] = molecular target: human CD94 (Natural killer cells antigen CD94) (human) (UniProt Q13241); assay: flow cytometry with APC MESF bead calibration, healthy donor PBL, CD3-/CD16+ NK cells
[13] = molecular target: human CD94 (Natural killer cells antigen CD94) (human) (UniProt Q13241); assay: flow cytometry with APC MESF bead calibration, CLPD-NK patient PBMC, CD3+CD8+ T cells
[14] = molecular target: human CD94 (Natural killer cells antigen CD94) (human) (UniProt Q13241); assay: flow cytometry with APC MESF bead calibration, healthy donor PBL, CD3+CD8+ T cells
[15] = molecular target: human CD94 (Natural killer cells antigen CD94) (human) (UniProt Q13241); assay: flow cytometry with APC MESF bead calibration, average over healthy donor PBMC, CD3+CD8+ (CD94+) T cells
[16] = molecular target: human CD94 (Natural killer cells antigen CD94) (human) (UniProt Q13241); assay: flow cytometry with APC MESF bead calibration, normal liver, NK cells (panel headed CD45+CD3+CD56+)
[17] = molecular target: human CD94 (Natural killer cells antigen CD94) (human) (UniProt Q13241); assay: flow cytometry with APC MESF bead calibration, CD94dim T-LGLL patient PBMC, CD3-CD16+ NK cells [Cont.]
[18] = molecular target: human CD94 (Natural killer cells antigen CD94) (human) (UniProt Q13241); assay: flow cytometry, CLPD-NK patient PBMC, CD3+CD16+ T-LGL
[19] = molecular target: human CD94 (Natural killer cells antigen CD94) (human) (UniProt Q13241); assay: flow cytometry with APC MESF bead calibration, CD94bright T-LGLL patient PBMC, CD3+CD16+ leukemic cells [Cont.]
[20] = molecular target: human CD94 (Natural killer cells antigen CD94) (human) (UniProt Q13241); assay: flow cytometry with APC MESF bead calibration, normal liver, CD45+CD3+CD4+ T cells
[21] = molecular target: human CD94 (Natural killer cells antigen CD94) (human) (UniProt Q13241); assay: flow cytometry with APC MESF bead calibration, healthy donor PBL, CD3-/CD57+ NK cells
[22] = molecular target: human CD94 (Natural killer cells antigen CD94) (human) (UniProt Q13241); assay: flow cytometry with APC MESF bead calibration, healthy donor PBL, CD3-/CD56+ NK cells
[23] = molecular target: human CD94 (Natural killer cells antigen CD94) (human) (UniProt Q13241); assay: flow cytometry with APC MESF bead calibration, normal liver, CD45+CD3+CD8+ T cells
[24] = molecular target: human CD94 (Natural killer cells antigen CD94) (human) (UniProt Q13241); assay: flow cytometry with APC MESF bead calibration, CD94dim T-LGLL patient PBMC, CD3+CD16- T lymphocytes [Cont.]
[25] = molecular target: human CD94 (Natural killer cells antigen CD94) (human) (UniProt Q13241); assay: flow cytometry with APC MESF bead calibration, average over healthy donor PBMC, CD3-CD16+ NK cells

UniProt P26715, sequence (P26715 whole entry): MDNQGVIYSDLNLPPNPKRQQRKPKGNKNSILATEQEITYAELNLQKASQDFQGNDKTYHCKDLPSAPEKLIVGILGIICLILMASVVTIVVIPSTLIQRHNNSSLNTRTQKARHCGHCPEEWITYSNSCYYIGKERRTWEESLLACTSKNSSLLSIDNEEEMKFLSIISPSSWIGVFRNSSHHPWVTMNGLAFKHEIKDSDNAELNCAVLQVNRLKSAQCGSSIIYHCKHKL
UniProt Q13241, sequence (Q13241 whole entry): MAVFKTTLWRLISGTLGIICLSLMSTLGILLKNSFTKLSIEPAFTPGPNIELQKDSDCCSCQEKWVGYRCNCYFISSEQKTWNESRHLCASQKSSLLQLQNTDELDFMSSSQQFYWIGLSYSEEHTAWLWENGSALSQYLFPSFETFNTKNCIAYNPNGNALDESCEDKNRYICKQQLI

In the case of “anti-NKG2A Z199 non-fucosylated antibody”, the ADCC assay, depletion of CD3-CD16+ NK leukemic cells in frozen CLPD-NK patient PBMCs, EC50 [1] is reported as 3 ng/mL, the ADCC assay, depletion of CD3-CD56bright NK cells in fresh healthy donor PBMCs, EC50 [1] is reported as 3 ng/mL and the ADCC assay, potency against the fucosylated Z199 antibody [1] is reported as 13 times.
anti-NKG2A Z199 fucosylated antibody showed an ADCC assay, depletion of CD3-CD56bright NK cells in fresh healthy donor PBMCs, EC50 [1] of 40 ng/mL.
“anti-CD94 antibody clone HP-3D9, APC-conjugated (BD Bioscience 559876)” was tested, and the % positive cells [2] was 13%, the % positive cells [3] was 25% and the Antibody binding capacity (receptors per cell) [4] was 117000. It also gave a CD94 receptor number (receptors per cell) [5] of 172000, an Antibody binding capacity (receptors per cell) [6] of 73000 and a % positive cells [7] of 30%. It also gave a % positive cells [8] of 14%, a % positive cells [9] of 31% and a CD94 receptor number (receptors per cell) [10] of 51000. For the same substance, the CD94 receptor number (receptors per cell) [11] was 51000, the CD94 receptor number (receptors per cell) [12] was 45000 and the CD94 receptor number (receptors per cell) [13] was 28000. It also gave a CD94 receptor number (receptors per cell) [14] of 28000, an Antibody binding capacity (receptors per cell) [15] of 45000 and a CD94 receptor number (receptors per cell) [16] of 195000. The CD94 receptor number (receptors per cell) [17] was 14000, the % positive cells [18] was 16% and the CD94 receptor number (receptors per cell) [19] was 177000. The CD94 receptor number (receptors per cell) [20] was 55000, the CD94 receptor number (receptors per cell) [21] was 39000 and the CD94 receptor number (receptors per cell) [22] was 51000. The CD94 receptor number (receptors per cell) [23] was 97000, the CD94 receptor number (receptors per cell) [24] was 33000 and the Antibody binding capacity (receptors per cell) [25] was 77000.
